The record followed here is publication PMC4899734, “Selective inhibition of apicoplast tryptophanyl-tRNA synthetase causes delayed death in Plasmodium falciparum” (Scientific Reports, 2016).

The target in series [1] is T1, apicoplast tryptophanyl-tRNA synthetase (TrpRS^api, PF3D7_1251700) (Plasmodium falciparum, UniProt A0A144A140).
T1 sequence (A0A144A140 61-559): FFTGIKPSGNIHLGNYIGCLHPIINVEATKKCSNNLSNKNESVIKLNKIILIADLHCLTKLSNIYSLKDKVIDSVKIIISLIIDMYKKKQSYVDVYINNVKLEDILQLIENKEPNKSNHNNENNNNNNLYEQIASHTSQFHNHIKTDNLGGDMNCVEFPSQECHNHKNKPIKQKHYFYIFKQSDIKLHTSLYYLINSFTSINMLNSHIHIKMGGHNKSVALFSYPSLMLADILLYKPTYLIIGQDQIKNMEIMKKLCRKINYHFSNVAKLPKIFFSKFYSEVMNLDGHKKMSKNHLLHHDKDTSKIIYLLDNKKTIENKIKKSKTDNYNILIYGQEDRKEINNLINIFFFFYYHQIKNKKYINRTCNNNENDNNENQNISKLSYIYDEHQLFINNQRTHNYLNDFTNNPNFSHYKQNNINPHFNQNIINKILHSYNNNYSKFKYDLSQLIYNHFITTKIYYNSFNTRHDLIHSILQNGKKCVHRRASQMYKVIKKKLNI
In words: radiolabelled tryptophan tRNA aminoacylation assay with purified recombinant enzyme, […] indolmycin. The series is classed as biochemical.

Substrate in series [2]: N[C@@H](Cc1c[nH]c2ccccc12)C(=O)O
In words: steady-state aminoacylation kinetics with purified enzyme (apparent Km). The series is classed as biochemical, Plasmodium falciparum. Conditions: ATP, Mg2+.

Substrate in series [3]: Nc1ncnc2c1ncn2[C@@H]1O[C@H](COP(=O)(O)OP(=O)(O)OP(=O)(O)O)[C@@H](O)[C@H]1O
Described as above. The series is classed as biochemical, Plasmodium falciparum. Conditions: Mg2+.

As for `CNC1=NC(=O)[C@H]([C@H](C)c2c[nH]c3ccccc23)O1` [indolmycin], the “radiolabelled tryptophan tRNA aminoacylation assay with purified recombinant enz” value in series [1] is reported as “at higher concentrations of indolmycin, tRNA^trp formation by TrpRS^api was reduced to background levels”.

B1: apicoplast tryptophanyl-tRNA synthetase (TrpRS^api, PF3D7_1251700) (Plasmodium falciparum 3D7) (protein)
chain: FFTGIKPSGNIHLGNYIGCLHPIINVEATKKCSNNLSNKNESVIKLNKIILIADLHCLTKLSNIYSLKDKVIDSVKIIISLIIDMYKKKQSYVDVYINNVKLEDILQLIENKEPNKSNHNNENNNNNNLYEQIASHTSQFHNHIKTDNLGGDMNCVEFPSQECHNHKNKPIKQKHYFYIFKQSDIKLHTSLYYLINSFTSINMLNSHIHIKMGGHNKSVALFSYPSLMLADILLYKPTYLIIGQDQIKNMEIMKKLCRKINYHFSNVAKLPKIFFSKFYSEVMNLDGHKKMSKNHLLHHDKDTSKIIYLLDNKKTIENKIKKSKTDNYNILIYGQEDRKEINNLINIFFFFYYHQIKNKKYINRTCNNNENDNNENQNISKLSYIYDEHQLFINNQRTHNYLNDFTNNPNFSHYKQNNINPHFNQNIINKILHSYNNNYSKFKYDLSQLIYNHFITTKIYYNSFNTRHDLIHSILQNGKKCVHRRASQMYKVIKKKLNI
Usually Km stands for the concentration of substrate that gives half-maximal velocity. Usually Vmax stands for the top rate of the reaction or transport when substrate is in excess. Turning to B1, in series [2], the Km was determined as 5.3 ± 1.2 µM and the Vmax is 0.029 µmol/min.

B2: cytosolic tryptophanyl-tRNA synthetase (TrpRS^cyt, PF3D7_1336900) (Plasmodium falciparum 3D7) (protein)
chain: KDVTPWDVNINNEEGINYNKLIKEFGCSKITENHIKRIEKLTNSKAHHFIRRGIFFSHRDLDFLLNYYEQHKCFYIYTGRGPSSLSMHLGHLIPFYFCKYLQEAFNVPLVIQLSDDEKYLFNQNYSLEYINTLTNENVKDIISVGLNPELTFIFKNTEYAGYLYPTVLSIHKKTTLNQSMNVFGFNHSDNIGKISYPSFQIAPCFSQCFPNFLGKNIPCLVPQGIDQDPYFRLSRDIAVKMALHKPVVVHSVFMPGLQGVNSKMSSTKKKKDDNGKSNSTFDHNNSVIFLTDTPEQIKNKINKYAFSGGGTTIQEHREKGGNLDKDISYQYLRYLLEDDNKLNEIGEKYKKGEMLSGEIKKILIDVLTELVLKHQEKKKSLTDEEISYFFDPNKPSLQKFKNM
As for B2, in series [3], the Km is 622 ± 0.3 µM and the Vmax turned out to be 0.292 µmol/min. Besides, in series [2], the Km was 15.6 ± 0.6 µM and the Vmax came out at 0.077 µmol/min.
